The record followed here is publication PMC11256085.

The test deals with EnfB, ThiF-like adenylyltransferase (TLAT) (Enterococcus faecium strain FDAARGOS_397 (methods); E. faecalis FDAARGOS_397 (results)).

With “EnfA with Trp18 substituted by Ala (peptide)”, the conversion of the EnfA variant by EnfB (in vitro enzyme assay, LC-MS) is 2.1%.
